From patent US20250076311A1 (Chugai, published 2025)
Changes are numbered by the printed parent chain. Names may count otherwise. One block for each binder: values may come before it.

Assays:
[1] = target: T1, human FcγRIIb extracellular domain with C-terminal His-tag (human, UniProt P31994 43-217); assay: SPR (BIACORE); KD of SG1 / KD of variant
T1 construct: also called human FcgRIIb; not shown: His-tag added to the C-terminus
T1 sequence: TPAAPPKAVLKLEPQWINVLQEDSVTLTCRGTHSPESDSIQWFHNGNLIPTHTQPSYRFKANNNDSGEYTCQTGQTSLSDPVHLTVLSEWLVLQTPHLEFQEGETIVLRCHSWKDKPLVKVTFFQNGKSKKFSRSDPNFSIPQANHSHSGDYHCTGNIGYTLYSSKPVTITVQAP

[2] = target: T2, human FcγRIIaH extracellular domain with C-terminal His-tag (human, UniProt P12318 34-217); assay: SPR (BIACORE); KD of SG1 / KD of variant
T2 construct: also called human FcgRIIaH; FcγRIIa type H; not shown: His-tag added to the C-terminus
T2 sequence: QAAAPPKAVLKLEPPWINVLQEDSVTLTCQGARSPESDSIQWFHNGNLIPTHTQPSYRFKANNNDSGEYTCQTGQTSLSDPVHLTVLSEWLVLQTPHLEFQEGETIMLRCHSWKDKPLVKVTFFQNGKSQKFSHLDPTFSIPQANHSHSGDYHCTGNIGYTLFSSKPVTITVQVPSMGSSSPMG

[3] = target: T3, cynomolgus monkey FcγRIIa1 extracellular domain with C-terminal His-tag (cynomolgus monkey); assay: SPR (BIACORE); KD of SG1 / KD of variant
T3 construct: also called cyno FcgRIIa1; cynoFcγRIIa1; not shown: His-tag added to the C-terminus
T3 chain: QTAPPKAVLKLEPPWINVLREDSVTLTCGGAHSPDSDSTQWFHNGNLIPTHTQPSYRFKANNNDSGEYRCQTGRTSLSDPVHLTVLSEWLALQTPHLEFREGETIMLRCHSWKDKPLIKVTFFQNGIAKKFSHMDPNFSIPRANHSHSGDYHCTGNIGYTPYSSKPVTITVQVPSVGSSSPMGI

[4] = target: T4, cynomolgus monkey FcγRIIIaS extracellular domain with C-terminal His-tag (cynomolgus monkey, UniProt A3RFZ7 21-206 (rhesus entry)); assay: SPR (BIACORE); KD of SG1 / KD of variant
T4 construct: also called cyno FcgRIIIaS; cynoFcγRIIIaS; not shown: His-tag added to the C-terminus
T4 sequence (A3RFZ7 21-206): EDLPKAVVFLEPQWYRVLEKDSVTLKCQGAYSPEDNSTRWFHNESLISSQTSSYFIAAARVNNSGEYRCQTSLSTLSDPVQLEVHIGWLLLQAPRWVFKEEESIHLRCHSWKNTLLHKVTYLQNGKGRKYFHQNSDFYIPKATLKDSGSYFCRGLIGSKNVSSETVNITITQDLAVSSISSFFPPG

[5] = target: T5, cynomolgus monkey FcγRIIa3 extracellular domain with C-terminal His-tag (cynomolgus monkey); assay: SPR (BIACORE); KD of SG1 / KD of variant
T5 construct: also called cyno FcgRIIa3; cynoFcγRIIa3; not shown: His-tag added to the C-terminus
T5 chain: T3 chain with P95T, T121A, A128S, H133P, D135N

[6] = target: T6, human FcγRIIIaV extracellular domain with C-terminal His-tag (human, UniProt P08637 17-208); assay: SPR (BIACORE); KD of SG1 / KD of variant
T6 construct: also called human FcgRIIIaV; not shown: His-tag added to the C-terminus
T6 sequence (P08637 17-208 F176V): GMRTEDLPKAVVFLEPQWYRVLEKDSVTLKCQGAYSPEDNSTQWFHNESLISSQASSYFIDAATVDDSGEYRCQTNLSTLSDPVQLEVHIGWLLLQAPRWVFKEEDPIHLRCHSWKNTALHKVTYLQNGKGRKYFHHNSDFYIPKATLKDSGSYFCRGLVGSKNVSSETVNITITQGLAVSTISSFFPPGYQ

[7] = target: T7, human FcγRIIaR extracellular domain with C-terminal His-tag (human, UniProt P12318 34-217); assay: SPR (BIACORE); KD of SG1 / KD of variant
T7 construct: also called human FcgRIIaR; FcγRIIa type R; not shown: His-tag added to the C-terminus
T7 chain: T2 sequence with H134R

[8] = target: T8, cynomolgus monkey FcγRIIb extracellular domain with C-terminal His-tag (cynomolgus monkey); assay: SPR (BIACORE); KD of SG1 / KD of variant
T8 construct: also called cyno FcgRIIb; cynoFcγRIIb; not shown: His-tag added to the C-terminus
T8 chain: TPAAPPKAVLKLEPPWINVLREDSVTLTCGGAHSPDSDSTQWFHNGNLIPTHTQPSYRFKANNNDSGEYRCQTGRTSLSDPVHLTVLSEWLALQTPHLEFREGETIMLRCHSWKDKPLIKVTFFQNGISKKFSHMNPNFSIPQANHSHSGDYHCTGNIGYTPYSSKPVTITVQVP

[9] = target: T9, cynomolgus monkey FcγRIIa2 extracellular domain with C-terminal His-tag (cynomolgus monkey); assay: SPR (BIACORE); KD of SG1 / KD of variant
T9 construct: also called cyno FcgRIIa2; cynoFcγRIIa2; not shown: His-tag added to the C-terminus
T9 chain: T3 chain with P95T, T121A, I127K, A128S, K130N, D135N, R142Q

[10] = target: T1, human FcγRIIb extracellular domain with …; assay: SPR (BIACORE), antibody captured, FcgR analyte
[11] = target: T2, human FcγRIIaH extracellular domain …; assay: SPR (BIACORE), antibody captured, FcgR analyte
[12] = target: T3, cynomolgus monkey FcγRIIa1 …; assay: SPR (BIACORE), antibody captured, FcgR analyte
[13] = target: T4, cynomolgus monkey FcγRIIIaS …; assay: SPR (BIACORE), antibody captured, FcgR analyte
[14] = target: T5, cynomolgus monkey FcγRIIa3 …; assay: SPR (BIACORE), antibody captured, FcgR analyte
[15] = target: T6, human FcγRIIIaV extracellular domain …; assay: SPR (BIACORE), antibody captured, FcgR analyte
[16] = target: T7, human FcγRIIaR extracellular domain …; assay: SPR (BIACORE), antibody captured, FcgR analyte
[17] = target: T8, cynomolgus monkey FcγRIIb extracellular …; assay: SPR (BIACORE), antibody captured, FcgR analyte
[18] = target: T9, cynomolgus monkey FcγRIIa2 …; assay: SPR (BIACORE), antibody captured, FcgR analyte
[19] = target: T10, cynomolgus monkey FcγRIIa3 extracellular domain, His-tagged (cynomolgus monkey); assay: SPR (BIACORE); KD of SG1 divided by KD of the variant
T10 construct: also called cyno FcgRIIa3; cynoFcγRIIa3; not shown: His-tag added to the C-terminus
T10 chain: T3 chain with P95T, T121A, A128S, H133P, D135N
Method: (§1) The kinetic analysis of interactions between these antibodies and FcγR was carried out using BIACORE® T200 or BIACORE® 4000 (GE Healthcare). HBS-EP+ (GE Healthcare) was used as the running buffer, and the measurement temperature was set to 25° C. […] After the measurement, the antibody captured on the chip was washed off by allowing reaction with 10 mM glycine-HCl, pH1.5 and 25 mM NaOH so that the chip was regenerated and used repeatedly. The sensorgrams obtained as measurement results were analyzed by the 1:1 Langmuir binding model using the BIACORE® Evaluation Software to calculate the binding rate constant ka (L/mol/s) and dissociation rate constant kd (1/s), and the dissociation constant KD (mol/L) was calculated from these values. […] Regarding such interactions, KD values were calculated using the following 1:1 binding model described in BIACORE® T100 Software Handbook BR1006-48 Edition AE.

[20] = target: T11, cynomolgus monkey FcγRIIa1 extracellular domain, His-tagged (cynomolgus monkey); assay: as above
T11 construct: also called cyno FcgRIIa1; cynoFcγRIIa1; not shown: His-tag added to the C-terminus
T11 chain: T3 chain
Method: as §1

[21] = target: T12, cynomolgus monkey FcγRIIb extracellular domain, His-tagged (cynomolgus monkey); assay: SPR (BIACORE), antibody captured on chip, soluble FcgR as analyte, 25 C
T12 construct: also called cyno FcgRIIb; cynoFcγRIIb; not shown: His-tag added to the C-terminus
T12 chain: T8 chain
Method: as §1

[22] = target: T13, human FcγRIIaH extracellular domain, His-tagged (human, UniProt P12318 34-217); assay: as above
T13 construct: also called human FcgRIIaH; FcγRIIa (type H); not shown: His-tag added to the C-terminus
T13 sequence: T2 sequence
Method: as §1

[23] = target: T14, human FcγRIIb extracellular domain, His-tagged (human, UniProt P31994 43-217); assay: as above
T14 construct: also called human FcgRIIb; not shown: His-tag added to the C-terminus
T14 sequence: T1 sequence
Method: as §1

[24] = target: T13, human FcγRIIaH extracellular domain, …; assay: SPR (BIACORE); KD of SG1 divided by KD of the variant
Method: as §1

[25] = target: T15, human FcγRIIaR extracellular domain, His-tagged (human, UniProt P12318 34-217); assay: as above
T15 construct: also called human FcgRIIaR; FcγRIIa (type R); not shown: His-tag added to the C-terminus
T15 chain: T2 sequence with H134R
Method: as §1

[26] = target: T16, human FcγRIIIaV extracellular domain, His-tagged (human, UniProt P08637 17-208); assay: SPR (BIACORE), antibody captured on chip, soluble FcgR as analyte, 25 C
T16 construct: also called human FcgRIIIaV; not shown: His-tag added to the C-terminus
T16 sequence (P08637 17-208 F176V): as the sequence (P08637 17-208 F176V) above
Method: as §1

[27] = target: T17, cynomolgus monkey FcγRIIIaS extracellular domain, His-tagged (cynomolgus monkey, UniProt A3RFZ7 21-206 (rhesus entry)); assay: as above
T17 construct: also called cyno FcgRIIIaS; cynoFcγRIIIaS; not shown: His-tag added to the C-terminus
T17 sequence (A3RFZ7 21-206): as the sequence (A3RFZ7 21-206) above
Method: as §1

[28] = target: T18, cynomolgus monkey FcγRIIa2 extracellular domain, His-tagged (cynomolgus monkey); assay: SPR (BIACORE); KD of SG1 divided by KD of the variant
T18 construct: also called cyno FcgRIIa2; cynoFcγRIIa2; not shown: His-tag added to the C-terminus
T18 chain: T3 chain with P95T, T121A, I127K, A128S, K130N, D135N, R142Q
Method: as §1

[29] = target: T17, cynomolgus monkey FcγRIIIaS …; assay: as above
Method: as §1

B1: M103205H795-MY146/M103202L889-SK1 (antibody, human IgG1, kappa, name in EU numbering)
heavy: QVTLKESGPVLVKPTETLTLTCTVSGIDLSHDDISWVRQAPGKGLEWVGIISYAGSTYYASWAKGRLTISKDTSKNQVVLTMTNMDPVDTATYYCARGVPAYSHGGDLWGQGTLVTVSSASTKGPSVFPLAPSSKSTSGGTAALGCLVKDYFPEPVTVSWNSGALTSGVHTFPAVLQSSGLYSLSSVVTVPSSSLGTQTYICNVNHKPSNTKVDKKVEPKSCDKTHTCPPCPAPELLNGPSVFLFPPKPKDTLMISRTPEVTCVVVDVSEEDPEVKFNWYVDGVEVHNAKTKPREEQYNLTYRVVSVLTVLHQDWLNGKEYKCKVSNKALPAPIEKTISKAKGQPREPQVYTLPPSREEMTKNQVSLTCLVKGFYPSDIAVEWESNGQPENNYKTTPMVLDSDGSFFLYSKLTVDKSRWQQGNVFSCSVMHEALHNHYTQKSLSLSP
light: DIVMTQSPATLSLSPGERATLSCTSSQSVYHANWLSWFQQKPGQPPKLLIYWASTLAYGVPSRFSGSGSGTDFTLTISSLQPEDAATYYCAGGYGGGRYAFGQGTKVEIKRTVAAPSVFIFPPSDEQLKSGTASVVCLLNNFYPREAKVQWKVDNALQSGNSQESVTEQDSKDSTYSLSSTLTLSKADYEKHKVYACEVTHQGLSSPVTKSFNRGEC
notes: Fc variant of MS1032LO06-SG1; positions in EU numbering
- KD fold (SG1 = 1) [1]: 5.2 fold
- KD fold (SG1 = 1) [2]: 0.3 fold
- KD fold (SG1 = 1) [3]: 18.8 fold
- KD fold (SG1 = 1) [4]: 0.12 fold
- KD fold (SG1 = 1) [5]: 3.5 fold
- KD fold (SG1 = 1) [6]: 0.09 fold
- KD fold (SG1 = 1) [7]: 0.5 fold
- KD fold (SG1 = 1) [8]: 2.1 fold
- KD fold (SG1 = 1) [9]: 2.8 fold
- Kd [10]: 880 nM
- Kd [11]: 2200 nM
- Kd [12]: 170 nM
- Kd [13]: 3100 nM
- Kd [14]: 4800 nM
- Kd [15]: 8800 nM
- Kd [16]: 2100 nM
- Kd [17]: 850 nM
- Kd [18]: 1800 nM

B4: M103205H795-MY201/M103202L889-SK1 (antibody, human IgG1, kappa)
heavy: B1 heavy with E270D, L300S, A332K, M398P
light: B1 light
notes: Fc variant of SG1 with G236N/H268D/A330K; also called MS1032LO06-MY201
- KD fold (SG1 = 1) [19]: 4 fold
- KD fold (SG1 = 1) [28]: 3.8 fold
- KD fold (SG1 = 1) [25]: 0.5 fold
- KD fold (SG1 = 1) [29]: 0.05 fold

Second part, the binder after the results:

- KD fold (SG1 = 1) [19]: 2.1 fold
- KD fold (SG1 = 1) [20]: 0.8 fold
- Kd [21]: 260 nM
- Kd [22]: 150 nM
- Kd [23]: 22000 nM
B2: M103205H795-MY264/M103202L889-SK1 (antibody, human IgG1, kappa, name in EU numbering)
heavy: B1 heavy with N238L, E270D, L300S, A332K, M398P
light: B1 light
notes: Asn at EU 236 of MY201 replaced with Leu

- KD fold (SG1 = 1) [19]: 1.7 fold
- KD fold (SG1 = 1) [24]: 0.7 fold
- KD fold (SG1 = 1) [25]: 0.5 fold
- Kd [26]: 30000 nM
- Kd [27]: 850 nM
B3: M103205H795-MY260/M103202L889-SK1 (antibody)
heavy: B1 heavy with N238M, E270D, L300S, A332K, M398P
light: B1 light
